One test has as its target T1, Cyno 4-1BB ECD-AFH (cynomolgus monkey).
T1 construct: entry includes the tags; also called FOB004; Cyno CD137 ECD-avi-flag-his
T1 chain: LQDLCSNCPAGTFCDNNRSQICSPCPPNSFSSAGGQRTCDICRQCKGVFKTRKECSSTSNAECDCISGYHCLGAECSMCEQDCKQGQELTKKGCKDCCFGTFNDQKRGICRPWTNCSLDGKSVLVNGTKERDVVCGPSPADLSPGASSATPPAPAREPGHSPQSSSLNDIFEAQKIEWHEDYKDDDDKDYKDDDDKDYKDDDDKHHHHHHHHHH
Briefly: SPR (Biacore 8K), construct captured, monovalent ECD. Background: Surface plasmon resonance follows binding to a sensor surface in real time, without labels.

The target of a further test is T2, Full-length Cyno OX40 (cynomolgus monkey, UniProt P43489 29-277 (human entry)).
T2 construct: on CHO-K1SV cells; also called OXF004; cynomolgus OX40
T2 chain: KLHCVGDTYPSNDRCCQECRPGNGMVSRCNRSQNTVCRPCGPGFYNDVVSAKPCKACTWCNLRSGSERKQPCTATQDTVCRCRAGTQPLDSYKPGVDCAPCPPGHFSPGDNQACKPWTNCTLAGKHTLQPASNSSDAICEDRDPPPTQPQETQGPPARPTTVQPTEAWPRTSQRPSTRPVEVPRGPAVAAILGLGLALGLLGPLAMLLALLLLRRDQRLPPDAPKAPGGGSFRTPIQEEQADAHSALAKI
Briefly: flow cytometry on CHOK1SV cells transfected with cynomolgus OX40, goat anti-human Fc secondary antibody, MFI (Mean). The protocol:
(§1) Serial dilutions of ADAPTIR™ constructs were incubated with transfected target cells and subsequently labelled with a fluorescently-conjugated goat-a-human Fc secondary antibody. […] (See Example 25.)
(A flow cytometer gives signals particle by particle.)

Another test concerns the target T3, Full-length Cyno 4-1BB (cynomolgus monkey, UniProt Q07011 24-255 (human entry)).
T3 construct: on Jurkat or CHO cells; also called FOB006; cynomolgus 4-1BB
T3 chain: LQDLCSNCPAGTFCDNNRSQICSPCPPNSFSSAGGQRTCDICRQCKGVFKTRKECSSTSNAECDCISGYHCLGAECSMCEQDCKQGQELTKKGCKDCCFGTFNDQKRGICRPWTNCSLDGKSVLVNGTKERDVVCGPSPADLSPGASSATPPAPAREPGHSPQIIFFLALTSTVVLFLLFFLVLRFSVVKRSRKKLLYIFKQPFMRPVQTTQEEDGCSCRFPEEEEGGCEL
Briefly: flow cytometry on Jurkat cells transfected with cynomolgus 4-1BB, goat anti-human Fc secondary antibody, MFI (Mean). As for the experimental part:
as §1

For another test, the target named is T4, Fc gamma receptor RIIB/C (human, UniProt P31994 46-217).
T4 construct: soluble SPR analyte
T4 sequence (looked up): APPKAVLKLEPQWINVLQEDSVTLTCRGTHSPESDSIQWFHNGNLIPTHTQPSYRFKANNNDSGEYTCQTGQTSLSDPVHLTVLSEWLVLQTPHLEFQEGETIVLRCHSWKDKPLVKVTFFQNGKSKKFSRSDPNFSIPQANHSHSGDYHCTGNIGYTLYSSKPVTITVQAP
Briefly: SPR, construct immobilized, receptor injected at 2 uM. The protocol:
(§2) Fcγ receptor binding to bispecific proteins was measured by Surface Plasmon Resonance on a Biacore 8K instrument at room temperature. Bispecific proteins with modified Fc regions to reduce binding to Fcγ receptors were directly immobilized on the surface of a CM5 sensor chip to a surface density of 4000 RU. A bispecific ADAPTIR™ protein with a wild type Fc was similarly immobilized to the surface as a positive control and used as a comparator to evaluate the reduction in binding resulting from changes incorporated into the Fc region amino acid sequence. Fcγ receptors (purchased from R&D Systems) were diluted to either 100 nM (FcγRI) or 2 μM (all other Fcγ receptors) in HBS-EP+ buffer before injecting over the surface of the prepared sensor chip at 30 μL/min for 60 seconds. Maximum RU values during association phase of each injection were used to compare the extent of binding of the modified Fc to wild type value and are reported in Table 17 below.

In test [1] the target is T5, Fc gamma receptor RIIA H167 (human, UniProt P12318 36-218).
T5 construct: soluble SPR analyte
T5 sequence (looked up): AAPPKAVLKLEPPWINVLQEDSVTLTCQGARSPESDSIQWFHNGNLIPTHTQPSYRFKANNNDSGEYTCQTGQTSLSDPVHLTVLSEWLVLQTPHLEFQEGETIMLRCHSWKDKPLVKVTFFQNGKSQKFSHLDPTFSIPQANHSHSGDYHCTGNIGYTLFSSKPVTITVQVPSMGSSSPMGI
The test is described as above. The protocol: as §2

For test [2], the target named is T6, Fc gamma receptor RIIA R167 (human, UniProt P12318 36-218).
T6 construct: soluble SPR analyte
T6 sequence (looked up): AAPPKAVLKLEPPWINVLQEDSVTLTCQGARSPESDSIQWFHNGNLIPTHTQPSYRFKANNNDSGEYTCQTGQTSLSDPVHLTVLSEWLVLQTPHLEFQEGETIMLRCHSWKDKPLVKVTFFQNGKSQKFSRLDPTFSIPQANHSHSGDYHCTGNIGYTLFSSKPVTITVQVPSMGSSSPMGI
The description is as above. The protocol:
as §2

B1: FXX01066 (bispecific antibody)
chain: EVQLVQSGAEVKKPGASVKVSCKASGYTFTSYWMNWVRQAPGQGLEWMGNIYPSGGSTNYAQKFQGRVTMTVDTSTSTVYMELSSLRSEDTAVYYCASFSDGYYAYAMDYWGQGTLVTVSSGGGGSGGGGSGGGGSGGGGSEIVMTQSPATLSLSPGERATLSCRASQSVSSYLNWYQQKPGQAPRLLIYYASRRHTGIPARFSGSGSGTDFTLTISSLQPEDFAVYYCQQGYNLPYTFGQGTKVEIKEPKSSDKTHTCPPCPAPPAAAPSVFLFPPKPKDTLMISRTPEVTCVVVDVSHEDPEVKFNWYVDGVEVHNAKTKPREEQYNSTYRVVSVLTVLHQDWLNGKEYKCAVSNKALPAPIEKTISKAKGQPREPQVYTLPPSRDELTKNQVSLTCLVKGFYPSDIAVEWESNGQPENNYKTTPPVLDSDGSFFLYSKLTVDKSRWQQGNVFSCSVMHEALHNHYTQKSLSLSPGGGGSPSSYVLTQPPSVSVAPGQTARITCGGNNIGSKSVNWFQQKPGQAPVLVVYDDSGRPSGIPERFSGSTSGNTATLTISRVEAGDEADYYCQVWDSSSDHVVFGGGTKLTVLGGGGSGGGGSGGGGSGGGGSQVQLVESGGGVVQPGRSLRLSCAASGFTLSYYGMHWVRQAPGKGLEWVAAISHDGSDKYYADSVKGRFTISRDNSKNTLYLQMNSLRAEDTAVYYCSNDQFDPWGQGTLVTVSSR
notes: ADAPTIR scFv-Fc-scFv, anti-4-1BB (VH-VL) N-terminal, anti-OX40 C-terminal, PAA (del) Fc; also called FX01066
One may read the Kd as the equilibrium constant for the complex coming apart. The low end stands for higher affinity, the high end for lower affinity. As usually defined, the koff is a measure of how fast the partners let go of each other. High values mean a short-lived complex, low ones a long-lived complex. Broadly, the kon is the rate constant with which the complex forms. As usually defined, the EC50 (read off the curve) is the concentration at which the effect is half-maximal. Higher therefore signals weaker potency. Turning to B1, the Kd with Cyno 4-1BB ECD-AFH turned out to be 92 nM. Besides, the koff in the test with Cyno 4-1BB ECD-AFH came to 0.0092 s⁻¹. Besides, the kon with Cyno 4-1BB ECD-AFH amounted to 100000 M⁻¹ s⁻¹. The “EC50 (read off the curve)” value with Full-length Cyno OX40 is about 2 nM; with Full-length Cyno 4-1BB, about 0.4 nM. Moreover, the “Max RU value during association” value came out at 21 RU with Fc gamma receptor RIIB/C, 14 RU in test [1] and 92 RU in test [2].

B2: FXX01102 (bispecific antibody)
chain: EVQLVQSGAEVKKPGASVKVSCKASGYTFTSYWMNWVRQAPGQGLEWMGNIYPSGGSTNYAQKFQGRVTMTVDTSTSTVYMELSSLRSEDTAVYYCASFSDGYYAYAMDYWGQGTLVTVSSGGGGSGGGGSGGGGSGGGGSEIVMTQSPATLSLSPGERATLSCRASQSVSSYLNWYQQKPGQAPRLLIYYASRRHTGIPARFSGSGSGTDFTLTISSLQPEDFAVYYCQQGYNLPYTFGQGTKVEIKEPKSSDKTHTCPPCPAPPAAAPSVFLFPPKPKDTLMISRTPEVTCVVVDVSHEDPEVKFNWYVDGVEVHNAKTKPREEQYNSTYRVVSVLTVLHQDWLNGKEYKCAVSNKALPAPIEKTISKAKGQPREPQVYTLPPSRDELTKNQVSLTCLVKGFYPSDIAVEWESNGQPENNYKTTPPVLDSDGSFFLYSKLTVDKSRWQQGNVFSCSVMHEALHNHYTQKSLSLSPGGGGSPSSYVLTQPPSVSVAPGKTARITCGGNNIGSKSVNWFQQKPGQAPVLVVYDDSGRPSGIPERFSGSTSGNTATLTISRVEAGDEADYYCQVWDSSSDHVVFGGGTKLTVLGGGGSGGGGSGGGGSGGGGSQVQLVESGGGVVQPGRSLRLSCAASGFTLSYYGMHWVRQAPGKGLEWVAAISHDGSDKYYADSVKGRFTISRDNSKNRLYLQMNSLRAEDTAVYYCSNDQFDPWGQGTLVTVSSR
notes: ADAPTIR anti-4-1BB (HL) x anti-OX40 with Q17K and T86R; PAA (del) Fc; also called FX01102
In the case of B2, binding with Cyno 4-1BB ECD-AFH was put at a Kd of 75 nM. For the same molecule, the koff with Cyno 4-1BB ECD-AFH stood at 0.0074 s⁻¹. The kon with Cyno 4-1BB ECD-AFH worked out at 98000 M⁻¹ s⁻¹. Moreover, the “EC50 (read off the curve)” value is 1 to 2 nM in the test with Full-length Cyno OX40 and about 0.3 nM with Full-length Cyno 4-1BB. In addition, the “Max RU value during association” value in the test with Fc gamma receptor RIIB/C was determined as 19 RU; in test [1], 13 RU; in test [2], 88 RU.

B3: FXX01101 (bispecific antibody)
chain: EVQLVQSGAEVKKPGASVKVSCKASGYTFTSYWMNWVRQAPGQGLEWMGNIYPSGGSTNYAQKFQGRVTMTVDTSTSTVYMELSSLRSEDTAVYYCASFSDGYYAYAMDYWGQGTLVTVSSGGGGSGGGGSGGGGSGGGGSEIVMTQSPATLSLSPGERATLSCRASQSVSSYLNWYQQKPGQAPRLLIYYASRRHTGIPARFSGSGSGTDFTLTISSLQPEDFAVYYCQQGYNLPYTFGQGTKVEIKEPKSSDKTHTCPPCPAPPAAAPSVFLFPPKPKDTLMISRTPEVTCVVVDVSHEDPEVKFNWYVDGVEVHNAKTKPREEQYNSTYRVVSVLTVLHQDWLNGKEYKCAVSNKALPAPIEKTISKAKGQPREPQVYTLPPSRDELTKNQVSLTCLVKGFYPSDIAVEWESNGQPENNYKTTPPVLDSDGSFFLYSKLTVDKSRWQQGNVFSCSVMHEALHNHYTQKSLSLSPGGGGSPSSYVLTQPPSVSVAPGQTARITCGGNNIGSKSVNWFQQKPGQAPVLVVYDDSGRPSGIPERFSGSTSGNTATLTISRVEAGDEADYYCQVWDSSSDHVVFGGGTKLTVLGGGGSGGGGSGGGGSGGGGSQVQLVESGGGVVQPGRSLRLSCAASGFTLSYYGMHWVRQAPGKGLEWVAAISHDGSDKYYADSVKGRFTISRDNSKNRLYLQMNSLRAEDTAVYYCSNDQFDPWGQGTLVTVSSR
notes: ADAPTIR anti-4-1BB (HL) x anti-OX40 with T86R; PAA (del) Fc; also called FX01101
Take B3: binding with Cyno 4-1BB ECD-AFH was characterised by a dissociation constant (Kd) of 76 nM. In addition, in the test with Cyno 4-1BB ECD-AFH, the koff was determined as 0.0077 s⁻¹. For the same molecule, the kon in the test with Cyno 4-1BB ECD-AFH came to 100000 M⁻¹ s⁻¹. For the same molecule, the “EC50 (read off the curve)” value with Full-length Cyno OX40 is 1 to 2 nM; in the test with Full-length Cyno 4-1BB, about 0.3 nM. Moreover, the entries for the “Max RU value during association” value (in the test with Fc gamma receptor RIIB/C; in test [1]; in test [2]) were 21 RU, 14 RU and 94 RU, respectively.

B4: FXX01111 (bispecific antibody)
chain: EVQLVQSGAEVKKPGASVKVSCKASGYTFTSYWMNWVRQAPGQGLEWMGNIYPSGGSTNYAQKFQGRVTMTVDTSTSTVYMELSSLRSEDTAVYYCASFSDGYYAYAMDYWGQGTLVTVSSGGGGSGGGGSGGGGSGGGGSEIVMTQSPATLSLSPGERATLSCRASQSVSSYLNWYQQKPGQAPRLLIYYASRRHTGIPARFSGSGSGTDFTLTISSLQPEDFAVYYCQQGYNLPYTFGQGTKVEIKEPKSSDKTHTCPPCPAPPAAAPSVFLFPPKPKDTLMISRTPEVTCVVVDVSHEDPEVKFNWYVDGVEVHNAKTKPREEQYNSTYRVVSVLTVLHQDWLNGKEYKCAVSNKALPAPIEKTISKAKGQPREPQVYTLPPSRDELTKNQVSLTCLVKGFYPSDIAVEWESNGQPENNYKTTPPVLDSDGSFFLYSKLTVDKSRWQQGNVFSCSVMHEALHNHYTQKSLSLSPGGGGSPSSYVLTQPPSVSVAPGQTARITCGGNNIGSKSVNWFQQKPGQAPVLVVYDDSGRPSGVPNRFSGSTSGNTATLTISRVEAGDEADYYCQVWDSSSDHVVFGGGTKLTVLGGGGSGGGGSGGGGSGGGGSQVQLVESGGGVVQPGRSLRLSCAASGFTLSYYGMHWVRQAPGKGLEWVAAISHDGSDKYYADSVKGRFTISRDNSKNTLYLQMNSLRAEDTAVYYCSNDQFDPWGQGTLVTVSSR
notes: ADAPTIR anti-4-1BB x anti-OX40, pI variant; PAA (del) Fc
On to B4, for which the dissociation constant (Kd) with Cyno 4-1BB ECD-AFH worked out at 81 nM. Also, in the test with Cyno 4-1BB ECD-AFH, the koff stood at 0.008 s⁻¹. This molecule also showed a kon with Cyno 4-1BB ECD-AFH of 99000 M⁻¹ s⁻¹. The “EC50 (read off the curve)” value with Full-length Cyno OX40 was 1 to 2 nM; in the test with Full-length Cyno 4-1BB, about 0.3 nM. In addition, the “Max RU value during association” value with Fc gamma receptor RIIB/C was found to be 20 RU; in test [1], 13 RU; in test [2], 86 RU.

Values taken from patent publication US20220242962A1 (APTEVO RESEARCH AND DEVELOPMENT, published 2022).
